# In patent US20200199244A1 (published 2020):
# Where “and” joins values, the source holds several entries; their conditions need not be identical. Equal entries are not always repeated. Where two headings read alike, the source gives them in different places.
# T1: wild type cynomolgus monkey CD40 Fc fusion (cynomolgus monkey (Macaca …))
# T1 construct: also called wt-cyno-CD40; wt-cCD40; not shown: human IgG1 Fc
# T1 chain: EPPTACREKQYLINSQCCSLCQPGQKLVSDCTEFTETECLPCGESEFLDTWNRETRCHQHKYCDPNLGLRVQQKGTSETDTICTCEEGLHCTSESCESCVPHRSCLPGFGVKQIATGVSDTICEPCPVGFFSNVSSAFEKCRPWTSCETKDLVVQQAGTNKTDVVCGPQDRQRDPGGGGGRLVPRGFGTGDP
# T2: human CD40 (H76R, W109L, L121P) Fc fusion (human)
# T2 construct: Made by site-directed mutagenesis of the wild type construct; no cleavage site is stated; also called hCD40-M5; hCD40-M5 (H76R, W109L, L121P); not shown: human IgG1 Fc
# T2 chain: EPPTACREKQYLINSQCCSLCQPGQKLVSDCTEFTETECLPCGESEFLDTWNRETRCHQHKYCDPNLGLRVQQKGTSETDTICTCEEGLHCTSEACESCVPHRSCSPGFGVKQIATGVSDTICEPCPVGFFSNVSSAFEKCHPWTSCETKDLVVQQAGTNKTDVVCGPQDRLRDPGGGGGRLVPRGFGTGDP
# Assays:
# biotinylated human CD40 [1] = target: T3, biotinylated human CD40 (human, UniProt P25942 21-193, limits assumed, biotinylated (sites not given)); experiment: SPR, BIAcore 3000, dAb injected alone over biotinylated human CD40 on SA chip
# T3 construct: Biotinylated human CD40 (supplied by BMS), about 600 RU immobilised on a streptavidin BIAcore chip; also called hCD40
# biotinylated human CD40 [2] = target: T3, biotinylated human CD40; experiment: SPR, BIAcore 3000 COINJECT over biotinylated human CD40; mixture after first injection; competitor BMS3h-56-5
# Description: (§1) A BIAcore™ 3000 instrument (GE Healthcare) was used to analyze whether CD40-specific dAbs bound the same CD40 epitope. […] A second flow-cell without any ligand immobilized served as a reference flow-cell for inline referencing. An appropriate dilution of each dAb or Fab to be analyzed was prepared in HBS-EP buffer (0.01 M HEPES pH 7.4 with 0.15 M NaCl, 3 mM EDTA and 0.005% v/v Surfactant P20, GE Healthcare). […] Next, a mixture of the same dAb or Fab as above (at the same final concentration) was prepared with a second dAb or Fab to be analyzed for competition. The COINJECT function of the instrument was used to inject 60 μl of the single-inhibitor dilution across the CD40-immobilized and reference flow-cells in series, followed immediately by a 60 μl injection of the two-inhibitor mixture. Inline subtraction of the signal from the reference cell was performed by the instrument's control software. The experiment was performed at 25° C. and a flow rate of 30 μl/min of HBS-EP. […] The maximum RU obtained for the second injection (the mixture of the two inhibitors) was noted and expressed as a percentage of the RU obtained for the same inhibitor when injected alone.
# [3] = target: T4, human CD40 (BMS, CY24FEB06-01) (human, UniProt P25942 21-193); experiment: bead RBA, competition with IZ-CD40L
# T4 construct: Soluble reagent of the bead and ELISA RBA; It is detected with an anti-human IgG (Fc) mAb, so it may be a CD40-Ig fusion
# [4] = target: T5, human CD40 expressed on stably transfected CHO-DG44 cells (human, UniProt P25942 21-277); experiment: CHO-CD40 cell RBA, competition with IZ-CD40L
# T5 construct: also called CHO-CD40
# biotinylated human CD40 [5] = target: T3, biotinylated human CD40; experiment: SPR, BIAcore 3000 COINJECT over biotinylated human CD40; mixture after first injection; competitor BMS3h-202-11
# Description: as §1
# biotinylated human CD40 [6] = target: T3, biotinylated human CD40; experiment: SPR, BIAcore 3000, dAb injected alone over biotinylated human CD40 on SA chip; remark: listed apart in the source
# Description: as §1
# biotinylated human CD40 [7] = target: T3, biotinylated human CD40; experiment: SPR, BIAcore 3000 COINJECT over biotinylated human CD40; mixture after first injection; competitor BMS3h-37-11
# Description: as §1
# biotinylated human CD40 [8] = target: T3, biotinylated human CD40; experiment: SPR, BIAcore 3000 COINJECT over biotinylated human CD40; mixture after first injection; competitor BMS3h-131-2
# Description: as §1
# biotinylated human CD40 [9] = target: T3, biotinylated human CD40; experiment: SPR, BIAcore 3000 COINJECT over biotinylated human CD40; mixture after first injection; competitor BMS3h-56-5; remark: listed apart in the source
# Description: as §1
# biotinylated human CD40 [10] = target: T3, biotinylated human CD40; experiment: SPR, BIAcore 3000, 5 µM dAb alone over biotinylated human CD40
# Description: as §1
# [11] = target: T1, wild type cynomolgus monkey CD40 Fc …; experiment: SPR (ProteOn XPR36), CD40-Fc captured via anti-human IgG(Fc), dAb as analyte, 25 C
# Description: (§2) Assays were performed on a BioRad ProteOn XPR36 SPR instrument. The SPR surfaces were prepared by immobilizing 8 μg/ml anti-human IgG(Fc) antibody (Biacore/GE Healthcare) in 10 mM sodium acetate pH 4.5 on a BioRad GLC sensor chip using standard ethyl(dimethylaminopropyl) carbodiimide (EDC)/N-hydroxysuccinimide (NHS) chemistry, with ethanolamine blocking. The running buffer for immobilization and kinetic binding analysis was 10 mM sodium phosphate, 130 mM sodium chloride, 0.05% tween 20, pH 7.1. CD40-Fc fusion proteins at concentrations of 20 μg/ml were captured in the vertical orientation on these surfaces via the Fc tail, and reference surfaces lacking CD40-Fc proteins were used for reference subtraction. […] The surfaces were regenerated in both horizontal and vertical orientations with 30 s pulses of 3 M MgCl₂ followed by running buffer at 60 μl/min. Sensogram data was double-referenced and then fitted to a 1:1 Langmuir model using BioRad ProteOn Manager V.2.1.0.38 software, to determine the association rate constant (ka), the dissociation rate constant (kd), and the equilibrium dissociation constant (KD).
# [12] = target: T6, human CD40 (W109L, L121P) Fc fusion (human, UniProt P25942 21-193); experiment: as above
# T6 construct: Made by site-directed mutagenesis of the wild type construct; no cleavage site is stated; also called hCD40-M4; hCD40 M4 (W109L, L121P); not shown: human IgG1 Fc
# [13] = target: T2, human CD40 (H76R, W109L, L121P) Fc …; experiment: as above
# Description: as §2
# biotinylated human CD40 [14] = target: T3, biotinylated human CD40; experiment: SPR, BIAcore 3000 COINJECT over biotinylated human CD40; mixture after first injection; competitor BMS3h-198-1
# Description: as §1
# [15] = target: T4, human CD40 (BMS, CY24FEB06-01); experiment: ELISA RBA, competition with IZ-CD40L
# Description: Clear walled High Bind, 384-well plates (Corning, UK) were coated with 25 μl of 1 μg/ml Neutravidin in 0.2 M carbonate-bicarbonate buffer, pH 9.4 overnight at 4° C. The following day, assay plates were washed with 0.1% (v/v) Tween PBS buffer, blocked with 1% (w/v) BSA in PBS for 1 hour at room temperature and washed again. […] Following washing of the assay plate, the dAb:human CD40 complex was incubated in the assay plate at room temperature for 2 hours with gentle agitation. […] Absorbance signal was measured using a SpectraMax® M5e plate reader (Molecular Devices) at 450 nm following neutralization with 1M HCl solution.
binder,measurement,setting,value
"BMS3h-38-2 (other, Domain antibody (dAb), single human VH domain) VH: EVQLLASGGGLVQPGGSLRLSCAASGFTFEEEEMIWVRQAPGKGLEWVSAISGSGGSTYYADSVKGRFTISRDNSKNTLYLQMNSLRAEDTAVYYCGKEPFRYDYWGQGTLVTVSS",RU first dAb alone,biotinylated human CD40 [1],170 RU
same,Second Injection (% of single dAb RU),biotinylated human CD40 [2],4%
"BMS3h-198 (other, dAb, single VH) VH: EVQLLESGGGLVQPGGSLRLSCAASGFTFAGYEMWWVRQAPGKGLERVSAISGSGGSTYYADSVKGRFTISRDDSKNTLYLQMNSLRAEDTAVYYCAKDPYSFDYWGQGTLVTVSS",EC50,[3],80 nM
same,EC50,[4],600 nM
"BMS3h-198-1 (other, Domain antibody (dAb), single human VH domain) VH: EVQLLESGGGLVQPGGSLRLSCAASGSTIAGYEMWWVRQAPGKGLERVSAISGSGGSTYYADSVKGRFTISRDDSKNTLYLQMNSLRAEDTAVYYCARDPYSFDYWGQGTLVTVSS",Second Injection (% of single dAb RU),biotinylated human CD40 [5],39%
same,RU first dAb alone,biotinylated human CD40 [6],176 RU
same,Second Injection (% of single dAb RU),biotinylated human CD40 [7],16%
same,Second Injection (% of single dAb RU),biotinylated human CD40 [8],23.2%
same,Second Injection (% of single dAb RU),biotinylated human CD40 [9],0.6%
"BMS3h-43 (other, dAb, single VH) VH: EVQLLESGGGLVQPGGSLRLSCTASGFTFNMYEMSWVRQAPGKGLEWVSGISRRGFTTYYADSVKGRFTISRDNSKNTLYLQMNSLRAEDTAVYYCAKEPITYAMRYARFDYWGQGTLVTVSS",EC50,[3],100 nM and 50 nM
same,EC50,[4],5000 nM
"BMS3h-43-1 (other, Domain antibody (dAb), single human VH domain) VH: EVQLLESGGGLVQPGGSLRLSCTASGFTFNMYEMSWVRQAPGKGLEWVSGISRRGFTTYYADSVKGRFTISRDNSKNTLYLQMNSLRAEDTAVYYCAKEPITYDLRYARFDYSGQGTLVTVSS",RU first dAb alone,biotinylated human CD40 [1],210 RU
same,Second Injection (% of single dAb RU),biotinylated human CD40 [2],22%
"BMS3h-43-3 (other, Domain antibody (dAb), single human VH domain) VH: EVQLLESGGGLVQPGGSLRLSCTASGFTFNMYEMSWVRQAPGKGLEWVSGISRRGFTTYYADSVKGRFTISRDNFKNTLYLQMNSLRAEDTAVYYCAKEPITYDMRYARFDYGGQGTLVTVSS",Single dAb RU,biotinylated human CD40 [10],300 RU
"BMS3h-56-5 (other, Anti-human CD40 domain antibody (dAb), a single human VH domain) VH: EVQLLESGGGLVQPGGSLRLSCAASGFTFRDYEMWWVRQAPGKGLERVSAINPQGTRTYYADSVMGRFTISRDNSKNTLYLQMNSLRAEDTAVYYCAKLPFTFDDWGQGTLVTVSS",binding result,[11],no binding (tested: 405 nM (highest dAb concentration))
same,binding result,[12],no binding (tested: 405 nM (highest dAb concentration))
same,binding result,[13],no binding (tested: 405 nM (highest dAb concentration))
"BMS3h-56-206 (other, Anti-human CD40 domain antibody (dAb), a single human VH domain) VH: EVQLLESGGGLVQPGGSLRLSCAASGFTFRDYEMWWVRQAPGKGLERVSAINPQGTRTYYADSVKGRFTISRDNSKNTLYLQMNSLRAEDTAVYHCAKLPMFFEDWGQGTLVTVSN",binding result,[11],no binding (tested: 405 nM (highest dAb concentration))
same,binding result,[12],no binding (tested: 405 nM (highest dAb concentration))
same,binding result,[13],no binding (tested: 405 nM (highest dAb concentration))
"BMS3h-56-202 (other, Anti-human CD40 domain antibody (dAb), a single human VH domain) VH: EVQLLESGGGLVQPGGSLRLSCAASGFTFRDYEMWWVRQAPGKGLERVSAINPQGTRTYYADSVKGRFTISRDNSKNTLYLQMNSLRAEDTAVYYCAKLPTYFSDRGQGTLVTVSS",binding result,[11],no binding (tested: 405 nM (highest dAb concentration))
same,binding result,[12],no binding (tested: 405 nM (highest dAb concentration))
same,binding result,[13],no binding (tested: 405 nM (highest dAb concentration))
"BMS3h-56-217 (other, Anti-human CD40 domain antibody (dAb), a single human VH domain) VH: EVQLLESGGGLVQPGGSLRLSCAASGFTFRDYEMWWVRQAPGKGLERVSAINPWGSLTYYADSVKGRFTISRDNSKNTLYLQMNSLRAEDTAVYYCAKLPFTFEDWGQGTLVTVSS",binding result,[11],no binding (tested: 405 nM (highest dAb concentration))
same,binding result,[12],no binding (tested: 405 nM (highest dAb concentration))
same,binding result,[13],no binding (tested: 405 nM (highest dAb concentration))
"BMS3h-41-9 (other, Domain antibody (dAb), single human VH domain) VH: EVQLLEPGGGLVQPGGSLRLSCAASGFTFTEYEMIWVRKAPGKGMEWVSSISGNGANTYYADSVKGRFTISRDNSKNTLYLQMNSLRPEDTAVYYCAKEPLRFDDWGQGTLVTVSS",RU first dAb alone,biotinylated human CD40 [1],150 RU
same,Second Injection (% of single dAb RU),biotinylated human CD40 [2],0%
"BMS3h-41-13 (other, Domain antibody (dAb), single human VH domain) VH: EVQLLESAGGLVQPGGSLRLSCAASGFTFAEYEMIWVRQAPGKGLEWVSSISGNGANTYYADSVKGRFTISRDNSKNTLYLQMNSLRAEDTAVYYCAKEPLRFDYWGQGALVTVSS",Single dAb RU,biotinylated human CD40 [10],162 RU
"BMS3h-37-11 (other, Domain antibody (dAb), single human VH domain) VH: EVQLLESGGGLVQPGGSLRLSCAASGFTFEWYEMQWVRKAPGKGLEWVSAISGDGYRTYYADSVKGRFTISRDNSKNTLYLQMNSLRAEDTAVYYCAKELGYFDYRGRGTLVTVSS",Second Injection (% of single dAb RU),biotinylated human CD40 [5],42%
same,RU first dAb alone,biotinylated human CD40 [6],158 RU
same,Second Injection (% of single dAb RU),biotinylated human CD40 [14],6.4%
same,Second Injection (% of single dAb RU),biotinylated human CD40 [8],-3.7%
same,Second Injection (% of single dAb RU),biotinylated human CD40 [9],-15%
"BMS3h-131-2 (other, Domain antibody (dAb), single human V kappa domain) VL: DIQMTQSPSSLSASVGDRVTITCRADSSILWALAWYQQKPGKAPKLLIESSSGLQSGVPSRFSGSGSGTDFTLTISSLQPEDFATYYCVQNAVWPGTFGQGTKVEIKR",Second Injection (% of single dAb RU),biotinylated human CD40 [5],57%
same,RU first dAb alone,biotinylated human CD40 [6],220 RU
same,Second Injection (% of single dAb RU),biotinylated human CD40 [14],41%
same,Second Injection (% of single dAb RU),biotinylated human CD40 [7],25%
same,Second Injection (% of single dAb RU),biotinylated human CD40 [9],17%
"BMS3h-287 (other, dAb, single VH) VH: EVQLLESGGGLVQPGGSLRLSCAASGFTFTNYRMSWVRQAPGKGLEWVSAIDDLGVSTYYADSVKGRFTISRDNSKNTLYLQMNSLRAEDTAVYYCAKWRLKNSQPTDFDYWGQGTLVTVSS",EC50,[15],> 10 µM and 6.76 µM
"BMS3h-202-11 (other, Domain antibody (dAb), single human VH domain) VH: EVQLLESGGGLVQPGGSLRLSCAASGFTFPTAEMLWVRKAPGKGLEWVSSISASGGSTYYADSVKGRFTISRDNSKNTLYLQMNSLRAEDAAVYYCAKEPVSYVATFDYWGQGTLVTVSS",RU first dAb alone,biotinylated human CD40 [6],124 RU
same,Second Injection (% of single dAb RU),biotinylated human CD40 [14],18%
same,Second Injection (% of single dAb RU),biotinylated human CD40 [7],0.3%
same,Second Injection (% of single dAb RU),biotinylated human CD40 [8],10.3%
same,Second Injection (% of single dAb RU),biotinylated human CD40 [9],7.3%
"BMS3h-217 (other, dAb, single VK) VL: DIQMTQSPSSLSASVGDRVTITCRASHFIGTLLSWYQQKPGKAPKLLITYGSLLQSGVPSRFSGSGSGTDFTLTISSLQPEDFATYYCGQGVLWPATFGQGTKVEIKR",EC50,[3],800 nM
same,EC50,[4],1400 nM
